Source: US11607390B2, “Self-righting systems and related components and methods” (priority 2017, dated 2023)

Test system: Micrococcus lysodelkticus cells
Assay: Lysozyme enzyme activity assay
Assay type: biochemical
Conditions: micropost tips 80% lysozyme, 20% PEO 200k vs uncompressed
Procedure: […] assays were performed on the dissolved solution.
To measure the activity of lysozyme, the assay provided by Sigma Aldrich was used which measures the amount of lysed Micrococcus lysodelkticus cells. Briefly, a 200 unit/mL Lysozyme solution in 50 mM Potassium Phosphate Buffer was added to a 0.015% [w/v] Micrococcus lysodeiklicus cell suspension in the same buffer. The decrease was recorded in A450 over 5 minutes. Nine micropost tips were fabricated from 80% lysozyme and 20% PEO 200k and dissolved sets of three micropost tips together. Triplicate assays were performed on each dissolved solution for a total of nine tests and the results were compared to the results of a solution made with lysozyme that was not compressed into a micropost tip.

lysozyme
enzymatic activity after the manufacturing process: maintain their activity
